One assay deals with HPTPβ (Homo sapiens, UniProt P23467). Put plainly: HPTPβ inhibitory activity (IC50). Format: biochemical.
For a further assay, the system named is eNOS. Put plainly: eNOS and Akt phosphorylation in human endothelial cells (immunoprecipitation, immunoblotting). Format: cell-based. As for the experimental part: Confluent monolayers of human endothelial cells expressing FLAG-tagged eNOS cultured overnight in MCDB131 containing 0.1% BSA and then incubated with increasing concentrations of Compound 2 (0.3-30 μmol/L) or solvent (DMSO) for 30 minutes. In separate experiments, human endothelial cells were cultured overnight in MCDB131 containing 0.1% BSA and then incubated treated with Compound 2 (30 μmol/L) or solvent for 30 minutes and then stimulated with Yoda1 (1 μmol/L) or solvent for an additional 30 minutes. To inhibit Src, cells were pre-incubated with PP2 (1 μmol/L) for 30 min before incubation with Compound 2 and stimulation with Yoda1. After two washes with cold PBS, cells were collected with the aid of cell scrapers in a lysis buffer containing Tris/HCl pH 7.5 (50 mmol/L), NaCl (150 mmol/L), Triton X-100 (1%), NaPPi (10 mmol/L), NaF (20 mmol/L), orthovanadate (2 mmol/L), okadaic acid (10 nmol/L), β-glycerophosphate (50 mmol/L), phenylmethylsulfonyl fluoride (230 μmol/L), and EDTA-free protease inhibitors mix. The cell mixture was incubated for 30 minutes at 4° C. with vortexing, followed by centrifugation at 13000 rpm for 10 minutes at 4° C. To assess the eNOS-VE-PTP interaction, the following modifications were applied: 1) cells were incubated with the lysis buffer for one hour on an end-over-end rocker at 4° C. and gently vortexed until no cell clumps were observed; 2) lysates were not centrifuged after lysis. FLAG-tagged eNOS was immunoprecipitated using 30 μL of packed Anti-FLAG M2 Affinity Gel per mg protein lysate overnight. The recovered immunoprecipitates were washed three times with the lysis buffer, eluted by boiling samples for 10 minutes in SDS sample buffer, and then analyzed by SDS-PAGE and immunoblotting.
Protein samples were separated by SDS-PAGE and then transferred to […] nitrocellulose membranes. Membranes were incubated overnight with primary antibodies against phospho-Tyr81 eNOS, phospho-Ser1177 eNOS, phospho-Ser633 eNOS, eNOS, phospho-Ser473 Akt, Akt, ABL1, VE-PTP, GAPDH, β-actin, followed by species-specific secondary antibodies anti-IgG conjugated with HRP. Proteins were visualized by enhanced chemiluminescence.

The next assay has as its system Tie-2. Description: Tie-2 phosphorylation in hypoxic HUVECs. The format is cell-based, human. As to conditions: HUVECs hypoxic 16 h; ANG-1 alone 500 ng/mL. On the procedure:
HUVECs cultured under hypoxic conditions for 16 hours were treated with 5 μM Compound 1 for 10 minutes in the presence or absence of ANG-1 or ANG-2 (500 ng/mL). Untreated cells served as controls. The cells were then lysed and Tie-2 was immunoprecipitated and probed with anti-phosphotyrosine (p-Tyr) to indicate Tie-2 activation, or anti-Tie-2 as a loading control.

The test system of the next assay is subjects with DME. Description: Sitting systolic blood pressure and pulse rate in subjects with DME, Compound 1 with or without ranibizumab (Example 9, TABLE 27). Format: in vivo, human. On the procedure:
A total of 144 subjects with DME were split into 3 treatment groups. Group 1 received a subcutaneous injection of Compound 1 (15 mg) and a sham intravitreal injection. Group 2 received a subcutaneous injection of Compound 1 (15 mg) and an intravitreal injection of ranibizumab (0.3 mg). Group 3 received a subcutaneous injection of a placebo, and an intravitreal injection of ranibizumab (0.3 mg).
FIG. 19 and TABLE 27 show the effect of Compound 1 treatment, both alone and in combination with ranibizumab, on the sitting systolic blood pressure of subjects.
FIG. 20 compares the effects of Compound 1 treatment, alone (Group 1), or in combination with ranibizumab (Group 2), on subjects with a baseline sitting systolic blood pressure of 140 mmHg or greater, versus those with a baseline sitting systolic blood pressure of less than 140 mmHg. […] The correlation between baseline sitting systolic blood pressure and the change in blood pressure from baseline seen 30 and 90 minutes following specified treatments is shown in FIG. 21 and FIG. 22, respectively.

Setting [1] is: subjects with DME, Compound 1 15 mg subcutaneous, ranibizumab 0.3 mg intravitreal, 30 minutes post-dose.
The mark [2] stands for this setting: subjects with DME, Compound 1 15 mg subcutaneous, ranibizumab 0.3 mg intravitreal, 90 minutes post-dose.

Here are results for seven molecules from patent publication US20200352914A1, “METHODS OF TREATING HYPERTENSION WITH ACTIVATORS OF TIE-2” (Aerpio Pharmaceuticals, Inc., priority 2019, published 2020).

Sequence of HPTPβ (P23467 23-1997): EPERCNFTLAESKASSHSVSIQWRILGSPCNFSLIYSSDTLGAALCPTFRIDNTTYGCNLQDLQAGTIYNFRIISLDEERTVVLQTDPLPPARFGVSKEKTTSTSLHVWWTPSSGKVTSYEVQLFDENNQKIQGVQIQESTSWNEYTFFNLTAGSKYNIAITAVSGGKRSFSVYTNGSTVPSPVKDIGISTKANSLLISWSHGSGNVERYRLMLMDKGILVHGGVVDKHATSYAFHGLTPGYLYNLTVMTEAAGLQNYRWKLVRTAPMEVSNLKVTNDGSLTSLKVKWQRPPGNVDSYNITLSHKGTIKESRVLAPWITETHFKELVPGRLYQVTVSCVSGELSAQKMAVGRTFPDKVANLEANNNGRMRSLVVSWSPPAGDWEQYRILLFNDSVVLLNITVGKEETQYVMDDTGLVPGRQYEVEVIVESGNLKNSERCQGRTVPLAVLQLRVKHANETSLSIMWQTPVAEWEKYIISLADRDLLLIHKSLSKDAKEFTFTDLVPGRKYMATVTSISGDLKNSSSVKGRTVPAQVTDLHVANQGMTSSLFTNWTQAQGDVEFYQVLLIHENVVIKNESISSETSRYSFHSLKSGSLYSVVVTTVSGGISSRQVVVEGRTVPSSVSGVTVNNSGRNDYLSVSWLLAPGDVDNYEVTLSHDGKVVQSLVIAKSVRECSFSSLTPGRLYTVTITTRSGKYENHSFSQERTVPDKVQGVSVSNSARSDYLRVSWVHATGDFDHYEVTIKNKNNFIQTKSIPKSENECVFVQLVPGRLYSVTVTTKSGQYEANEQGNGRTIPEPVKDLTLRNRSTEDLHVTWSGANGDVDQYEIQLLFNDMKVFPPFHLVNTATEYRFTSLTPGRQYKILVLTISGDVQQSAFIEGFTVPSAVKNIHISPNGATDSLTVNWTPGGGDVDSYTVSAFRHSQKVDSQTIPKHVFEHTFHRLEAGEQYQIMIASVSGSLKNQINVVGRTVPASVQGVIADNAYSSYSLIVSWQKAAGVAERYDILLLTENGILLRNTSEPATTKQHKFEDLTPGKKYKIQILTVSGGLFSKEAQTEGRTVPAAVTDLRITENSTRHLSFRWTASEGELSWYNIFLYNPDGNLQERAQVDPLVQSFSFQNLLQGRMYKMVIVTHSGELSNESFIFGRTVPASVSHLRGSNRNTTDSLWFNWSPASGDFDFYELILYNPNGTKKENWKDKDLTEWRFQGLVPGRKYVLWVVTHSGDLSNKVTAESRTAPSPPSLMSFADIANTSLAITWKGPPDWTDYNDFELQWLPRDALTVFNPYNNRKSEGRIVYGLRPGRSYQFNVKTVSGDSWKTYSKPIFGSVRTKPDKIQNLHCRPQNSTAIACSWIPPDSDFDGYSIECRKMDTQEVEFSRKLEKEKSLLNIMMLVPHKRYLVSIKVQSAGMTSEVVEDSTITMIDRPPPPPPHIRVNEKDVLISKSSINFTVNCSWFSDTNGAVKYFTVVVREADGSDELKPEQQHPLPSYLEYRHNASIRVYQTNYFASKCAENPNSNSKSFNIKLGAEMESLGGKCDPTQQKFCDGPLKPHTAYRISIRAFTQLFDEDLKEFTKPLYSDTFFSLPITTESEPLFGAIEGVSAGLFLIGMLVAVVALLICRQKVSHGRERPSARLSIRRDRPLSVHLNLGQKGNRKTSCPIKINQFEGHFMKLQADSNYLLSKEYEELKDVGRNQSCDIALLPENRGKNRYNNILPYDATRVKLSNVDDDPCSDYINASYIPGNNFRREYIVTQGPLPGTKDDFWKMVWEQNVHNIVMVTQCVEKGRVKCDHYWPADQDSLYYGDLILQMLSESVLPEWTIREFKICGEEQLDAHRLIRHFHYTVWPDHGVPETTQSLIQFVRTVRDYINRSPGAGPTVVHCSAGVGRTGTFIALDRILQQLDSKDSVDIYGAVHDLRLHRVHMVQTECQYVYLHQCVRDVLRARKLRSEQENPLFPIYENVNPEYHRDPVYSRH

A word on the IC50: it is the concentration that inhibits the measured activity by half. A low value points to greater potency. Consider `CCCc1nc([C@H](Cc2ccc(NS(=O)(=O)O)cc2)NC(=O)OC(C)(C)C)cs1` [AA65], for which the IC50 against HPTPβ is 40 nM.

As to `CC(C)(C)n1nc(-c2ccc(Cl)cc2)c2c(N)ncnc21` [PP2, reference compound], in the assay with eNOS (PP2 1 μmol/L pre-incubation), the “basal and Yoda1-induced tyrosine phosphorylation of eNOS” value was “significantly reduced”.

For `Clc1cccc(Cl)c1CSc1nnc(-c2cnccn2)s1` [Yoda1, reference compound], the “phosphorylation of Akt and eNOS” value with eNOS (Yoda1 1 μmol/L, 30 min) was “elicited the phosphorylation of Akt on Ser473, and phosphorylation of eNOS on Ser1177 and Ser633”.

`COC(=O)N[C@@H](Cc1ccccc1)C(=O)N[C@@H](Cc1ccc(NS(=O)(=O)O)cc1)c1nc(-c2ccccc2)cs1` [AA21] returned an IC50 against HPTPβ below 0.002 nM.

B1: ANG-1: angiopoietin 1, an agonist of Tie-2 (protein, UniProt Q15389 16-498, looked up)
Angiopoietin-1: HIGCSNQRRSPENSGRRYNRIQHGQCAYTFILPEHDGNCRESTTDQYNTNALQRDAPHVEPDFSSQKLQHLEHVMENYTQWLQKLENYIVENMKSEMAQIQQNAVQNHTATMLEIGTSLLSQTAEQTRKLTDVETQVLNQTSRLEIQLLENSLSTYKLEKQLLQQTNEILKIHEKNSLLEHKILEMEGKHKEELDTLKEEKENLQGLVTRQTYIIQELEKQLNRATTNNSVLQKQQLELMDTVHNLVNLCTKEGVLLKGGKREEEKPFRDCADVYQAGFNKSGIYTIYINNMPEPKKVFCNMDVNGGGWTVIQHREDGSLDFQRGWKEYKMGFGNPSGEYWLGNEFIFAITSQRQYMLRIELMDWEGNRAYSQYDRFHIGNEKQNYRLYLKGHTGTAGKQSSLILHGADFSTKDADNDNCMCKCALMLTGGWWFDACGPSNLNGMFYTAGQNHGKLNGIKWHYFKGPSYSLRSTTMMIRPLDF
For B1, the “Tie-2 phosphorylation (p-Tyr)” value with Tie-2 was “did not increase Tie-2 phosphorylation”.

B2: ranibizumab (antibody, chains of the INN, looked up, V domains shown)
VH: EVQLVESGGGLVQPGGSLRLSCAASGYDFTHYGMNWVRQAPGKGLEWVGWINTYTGEPTYAADFKRRFTFSLDTSKSTAYLQMNSLRAEDTAVYYCAKYPYYYGTSHWYFDVWGQGTLVTVSS
VL: DIQLTQSPSSLSASVGDRVTITCSASQDISNYLNWYQQKPGKAPKVLIYFTSSLHSGVPSRFSGSGSGTDFTLTISSLQPEDFATYYCQQYSTVPWTFGQGTKVEIK
modifications: Fab
Consider B2, for which the blood pressure change entry in the assay on subjects with DME (baseline sitting SBP 140 mmHg or greater, ranibizumab alone (Group 3)) is reported as “Minimal change in blood pressure”. Besides, the “decrease in sitting systolic blood pressure compared to baseline” value with subjects with DME (ranibizumab 0.3 mg intravitreal alone (Group 3), 30 and 90 minutes post-dose) is given as “not seen”.

B3: Placebo + Ranibizumab (antibody, chains of the INN, looked up, V domains shown)
VH: EVQLVESGGGLVQPGGSLRLSCAASGYDFTHYGMNWVRQAPGKGLEWVGWINTYTGEPTYAADFKRRFTFSLDTSKSTAYLQMNSLRAEDTAVYYCAKYPYYYGTSHWYFDVWGQGTLVTVSS
VL: DIQLTQSPSSLSASVGDRVTITCSASQDISNYLNWYQQKPGKAPKVLIYFTSSLHSGVPSRFSGSGSGTDFTLTISSLQPEDFATYYCQQYSTVPWTFGQGTKVEIK
modifications: Fab with placebo
For the molecule B3, in the assay with subjects with DME (setting [1]), the “Sitting systolic blood pressure, Change from pre-dose to 30 minutes post-dose, Max” value is 31 mmHg; the “Sitting systolic blood pressure, Change from pre-dose to 30 minutes post-dose, Mean (SD)” value is listed as 2.2 (14.32) mmHg; the “Sitting systolic blood pressure, Change from pre-dose to 30 minutes post-dose, Median” value is 1.0 mmHg; the “Sitting systolic blood pressure, Change from pre-dose to 30 minutes post-dose, Min” value is given as −37 mmHg. In addition, in the assay with subjects with DME (setting [2]), the “Sitting systolic blood pressure, Change from pre-dose to 90 minutes post-dose, Max” value is 35 mmHg; the “Sitting systolic blood pressure, Change from pre-dose to 90 minutes post-dose, Mean (SD)” value is −0.1 (14.46) mmHg; the “Sitting systolic blood pressure, Change from pre-dose to 90 minutes post-dose, Median” value came out at 2.0 mmHg; the “Sitting systolic blood pressure, Change from pre-dose to 90 minutes post-dose, Min” value is reported as −30 mmHg.
